This series concerns the molecule itself. The series is described as follows: cryo-EM structure; single-particle cryoEM of the purified Salmonella MS-FliG ring complex in 25 mM Tris-HCl pH 8.0, 50 mM NaCl, 1 mM EDTA, 0.1% DDM; 8.6 Å (C1) and 6.1 Å (C11) reconstructions.

Results on one protein are retold here after PMC8092281, “Two Distinct Conformations in 34 FliF Subunits Generate Three Different Symmetries within the Flagellar MS-Ring” (mBio, 2021).

B1: Salmonella FliF (MS-ring of the purified MS-FliG ring complex) (natural protein, UniProt P15928 1-560, looked up)
chain: MSATASTATQPKPLEWLNRLRANPRIPLIVAGSAAVAIVVAMVLWAKTPDYRTLFSNLSDQDGGAIVAQLTQMNIPYRFANGSGAIEVPADKVHELRLRLAQQGLPKGGAVGFELLDQEKFGISQFSEQVNYQRALEGELARTIETLGPVKSARVHLAMPKPSLFVREQKSPSASVTVTLEPGRALDEGQISAVVHLVSSAVAGLPPGNVTLVDQSGHLLTQSNTSGRDLNDAQLKFANDVESRIQRRIEAILSPIVGNGNVHAQVTAQLDFANKEQTEEHYSPNGDASKATLRSRQLNISEQVGAGYPGGVPGALSNQPAPPNEAPIATPPTNQQNAQNTPQTSTSTNSNSAGPRSTQRNETSNYEVDRTIRHTKMNVGDIERLSVAVVVNYKTLADGKPLPLTADQMKQIEDLTREAMGFSDKRGDTLNVVNSPFSAVDNTGGELPFWQQQSFIDQLLAAGRWLLVLVVAWILWRKAVRPQLTRRVEEAKAAQEQAQVRQETEEAVEVRLSKDEQLQQRRANQRLGAEVMSQRIREMSDNDPRVVALVIRQWMSNDHE
notes: FliF, flagellar M-ring protein, Salmonella; 60-kDa protein with two transmembrane helices and a large periplasmic region; also called St-FliF; copies: 34
Regarding B1, the “stoichiometry N” value is 34.
